Laboratory results as given in paper PMC3197615.

Tests used:
[1] = biological target: mouse Ephrin A4 on transduced WOP cells (mouse) (UniProt O08542)
[2] = biological target: human Ephrin A4 on transduced WOP cells (human) (UniProt P52798)
[3] = biological target: rat Ephrin A4 on transduced WOP cells (rat)

UniProt O08542, sequence (O08542 26-175): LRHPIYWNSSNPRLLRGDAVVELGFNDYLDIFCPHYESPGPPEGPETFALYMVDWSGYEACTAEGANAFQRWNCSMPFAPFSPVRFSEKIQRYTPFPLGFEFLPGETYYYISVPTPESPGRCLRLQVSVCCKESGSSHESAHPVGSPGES
UniProt P52798, sequence (P52798 26-170): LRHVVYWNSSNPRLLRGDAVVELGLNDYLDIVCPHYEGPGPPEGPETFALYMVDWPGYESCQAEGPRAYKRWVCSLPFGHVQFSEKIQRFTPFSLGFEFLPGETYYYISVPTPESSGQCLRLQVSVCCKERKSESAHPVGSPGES

Substance: IAPE Env (IAPE D2*) on transfected 293T cells (natural protein)
- fold increase of the titre of IAPE Env pseudotypes over no-Env pseudotypes on transduced WOP cells (fold increase) [1]: 16
- fold increase of the titre of IAPE Env pseudotypes over no-Env pseudotypes on transduced WOP cells (fold increase) [2]: 231
- fold increase of the titre of IAPE Env pseudotypes over no-Env pseudotypes on transduced WOP cells (fold increase) [3]: 16
